The values that follow come from patent US20220348970A1, “METHODS AND COMPOSITIONS FOR 3-HYDROXYPROPIONATE PRODUCTION” (The Regents of the University of California, priority 2017, published 2022).

The target of data set [1] is Actinobacillus succinogenes PCK (phosphoenolpyruvate carboxykinase), SEQ ID NO: 163 (Actinobacillus succinogenes, UniProt A6VKV4). Briefly: Kinetics of PEPCK against PEP (carboxylation direction, malate dehydrogenase/NADH coupled). As to conditions: 100 mM PBS buffer (pH 6.5), 1.25 mM ADP, 50 mM KHCO3, 2 mM MnCl2. Type of data set: biochemical. As for the experimental part: (§1) 5 genes encoding candidate PEPCKs were synthesized and cloned into expression vectors. After obtaining solubly expressed proteins, they were used for activity characterization. Each enzyme was assayed in the phosphenolpyruvate carboxylation direction in a solution containing 100 mM PBS buffer (pH 6.5), 0.20 mM NADH, 1.25 mM ADP, 2.5 mM PEP, 50 mM KHCO3, 2 mM MnCl2, and 4 units malate dehydrogenase.
Chain of Actinobacillus succinogenes PCK (phosphoenolpyruvate carboxykinase), SEQ ID NO: 163 (A6VKV4 whole entry): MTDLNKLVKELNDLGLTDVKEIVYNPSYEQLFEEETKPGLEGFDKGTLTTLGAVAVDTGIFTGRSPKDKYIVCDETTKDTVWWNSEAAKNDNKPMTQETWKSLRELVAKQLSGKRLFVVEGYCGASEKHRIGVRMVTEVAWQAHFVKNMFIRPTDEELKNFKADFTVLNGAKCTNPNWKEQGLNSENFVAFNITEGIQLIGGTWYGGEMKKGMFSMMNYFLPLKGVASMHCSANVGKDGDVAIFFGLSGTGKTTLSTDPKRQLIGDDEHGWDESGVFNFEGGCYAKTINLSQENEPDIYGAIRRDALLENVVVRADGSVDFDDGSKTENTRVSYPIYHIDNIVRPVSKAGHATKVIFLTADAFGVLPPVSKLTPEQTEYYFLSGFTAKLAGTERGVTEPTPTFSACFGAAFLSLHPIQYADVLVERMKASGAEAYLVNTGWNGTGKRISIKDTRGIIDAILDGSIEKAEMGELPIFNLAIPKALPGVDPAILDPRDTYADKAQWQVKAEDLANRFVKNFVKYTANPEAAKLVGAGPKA

Substrate in data set [2]: CC(=O)C(=O)O
In words: Steady-state kinetics of 4COK decarboxylase on pyruvate and oxaloacetate (ADH/NADPH coupled, 340 nm). Type of data set: biochemical, Gluconacetobacter diazotrophicus. As to conditions: other: pH 7.2, 21° C., 0.1 mM-5 mM substrate. The protocol:
Overnight cultures of BLR cells suspended in a 2 mL volume were transformed with a pet29b+ plasmid (encoding polypeptides of interest with a C-terminal His-tag) and grown in Terrific Broth with 50 μg/ml kanamycin. Cultures were diluted 1:1.000 in 500 ml of Terrific Broth with 1 mM MgSO4, 1% glucose and 50 μg/ml antibiotic and then grown at 37° C. for 24 hours. Cultures were pelleted down at 4,700 RPM for 10 minutes and resuspended in auto-induction media (LB broth, 1 mM MgSO4, 0.1 mM TPP, 1×NPS and 1×5052) for induction at 18° C. for 20 hours. At the end of induction, cells were centrifuged, the supernatant was removed and cells were resuspended in 40 mL lysis buffer (100 mM HEPES, pH 7.5, 100 mM NaCl, 10% glycerol, 0.1 mM TPP, 1 mM MgSO4, 10 mM Imidazole, 1 mM TCEP) and 1 mM phenylmethylsulphonyl fluoride. The cell lysate suspension was sonicated for 2 min and followed by centrifugation at 4,700 RPM. The supernatant was loaded onto a gravity flow column with 500 uL Cobalt beads and was washed with 15 mL of wash buffer five times. Proteins were eluted with […] of elution buffer (100 mM HEPES, pH 7.5, 100 mM NaCl, 10% glycerol, 0.1 mM TPP, 1 mM MgSO4, 200 mM Imidazole and 1 mM TCEP). Protein concentrations were determined using a Synergy H1 spectrophotometer (Biotek) by measuring absorbance at 280 nm using calculated extinction coefficients.
All substrates were dissolved in MilliQ H2O and the pH was adjusted to 7.2 as necessary. Activity for oxaloacetate, pyruvate, and 2-ketoisovalerate was measured at a 1 mM substrate concentration. The assay was performed in a 96-well half-area plate. […] Absorbance readings were taken at one minute intervals at 340 nm at 21° C. for 60 minutes using the Synergy H1 spectrophotometer (Biotek). Kinetic parameters (ka and Ks1) were determined by fitting initial velocity versus substrate concentration data to the Michaelis-Menten equation. […]

Substrate in data set [3]: NC(=O)c1ccc[n+]([C@@H]2O[C@H](COP(=O)([O-])OP(=O)(O)OC[C@H]3O[C@@H](n4cnc5c(N)ncnc54)[C@H](O)[C@@H]3O)[C@@H](O)[C@H]2O)c1
Briefly: 3-HPDH activity towards 3-HP (reverse reaction) using NAD+. The data set is classed as biochemical, Metallosphaera sedula. Conditions: other: activity towards 3-HP, pH 7.2, 21° C. As for the experimental part: (§2) Candidate ADHs were expressed in E. coli, and soluble expression levels were analyzed. 3-HP dehydrogenase (3-HPDH) activity of each was tested based on the reverse reaction, from 3-HP to 3-oxopropanoate. The assay was performed in a 96-well half-area plate. Each reaction contained a final concentration of 1 mM NADP^+/NAD^+ in reaction buffer (100 mM Hepes, 100 mM NaCl, 10% glycerol, pH 7.2) and ADHs. A range of substrates from 0.1 mM-5 mM was used to perform steady-state kinetics measurement over a period of an hour. Absorbance readings were taken every 1 min at OD 340 at 21° C. for 60 min. using the Synergy™ H1 Hybrid Multi-Mode Microplate Reader (Biotek). Kinetic parameters (kcat and KM) were determined by fitting initial velocity versus substrate concentration data to the Michaelis-Menten equation.

Substrate in data set [4]: NC(=O)c1ccc[n+]([C@@H]2O[C@H](COP(=O)([O-])OP(=O)(O)OC[C@H]3O[C@@H](n4cnc5c(N)ncnc54)[C@H](O)[C@@H]3O)[C@@H](O)[C@H]2O)c1
Described as above. Type of data set: biochemical. Conditions: other: activity towards 3-HP, pH 7.2, 21° C. As for the experimental part: as §2

Substrate in data set [5]: O=C(O)CC(=O)C(=O)O
In words: OAADC kinetics of A0A0J7KM68 on oxaloacetate. Type of data set: biochemical. Conditions: other: oxaloacetate, pH 7.2, 21° C. The protocol: (§3) All substrates were dissolved in MilliQ H2O and the pH was adjusted to 7.2 as necessary. Activity for oxaloacetate, pyruvate, and 2-ketoisovalerate was measured at a 1 mM substrate concentration. The assay was performed in a 96-well half-area plate. Each reaction contained reaction buffer (100 mM HEPES, 100 mM NaCl, 10% glycerol, pH 7.2), ADH (Sigma-Aldrich, A7011, 100 U/mL for pyruvate, 600 U/mL for oxaloacetate, and 600 U/mL for 2-ketoisovalerate), and a final concentration of 0.5 mM NADPH, 0.1 mM TPP, and 1 mM MgSO4. A range of substrate concentrations (0.1 mM-5 mM) were uSEQ to perform steady-state kinetics measurement over a period of one hour. Absorbance readings were taken at one minute intervals at 340 nm at 21° C. for 60 minutes using the Synergy H1 spectrophotometer (Biotek). Kinetic parameters (ka and Ks1) were determined by fitting initial velocity versus substrate concentration data to the Michaelis-Menten equation.
(§4) A second round of genome mining was conducted as described in Example 1, except using the 4COK sequence as the input. Genes encoding candidate OAADCs were synthesized and expressed in E. coli for further characterization. OAADC activity was assayed as described in Example 1.

Substrate in data set [6]: O=C(O)CC(=O)C(=O)O
Briefly: OAADC kinetics of 5EUJ on oxaloacetate. As to conditions: other: oxaloacetate, pH 7.2, 21° C. The data set is classed as biochemical. The protocol:
as §3, §4

Substrate in data set [7]: C=C(OP(=O)(O)O)C(=O)O
In words: Kinetics of PEPCK against PEP (carboxylation direction, malate dehydrogenase/NADH coupled). The data set is classed as biochemical, E. coli. As to conditions: other: PEP, 100 mM PBS buffer (pH 6.5), 1.25 mM ADP, 50 mM KHCO3, 2 mM MnCl2. As for the experimental part: as §1

The term Km denotes the substrate concentration at which the rate is half of its maximum. As usually defined, the kcat is the maximal rate divided by the concentration of active sites. For the molecule `C=C(OP(=O)(O)O)C(=O)O` [PEP, phosphoenolpyruvate], in data set [1], the Michaelis constant (Km) was determined as 169 µM and the catalytic constant (kcat) came out at 2.875 s⁻¹.

B1: pyruvate decarboxylase from Gluconacetobacter diazotrophicus (4COK), SEQ ID NO: 1 (Gluconacetobacter diazotrophicus PA1 5) (protein)
chain: MTYTVGRYLADRLAQIGLKHHFAVAGDYNLVLLDQLLLNTDMQQIYCSNELNCGFSAEGYARANGAAAAIVTFSVGALSAFNALGGAYAENLPVILISGAPNANDHGTGHILHHTLGTTDYGYQLEMARHITCAAESIVAAEDAPAKIDHVIRTALREKKPAYLEIACNVAGAPCVRPGGIDALLSPPAPDEASLKAAVDAALAFIEQRGSVTMLVGSRIRAAGAQAQAVALADALGCAVTTMAAAKSFFPEDHPGYRGHYWGEVSSPGAQQAVEGADGVICLAPVFNDYATVGWSAWPKGDNVMLVERHAVTVGGVAYAGIDMRDFLTRLAAHTVRRDATARGGAYVTPQTPAAAPTAPLNNAEMARQIGALLTPRTTLTAETGDSWFNAVRMKLPHGARVELEMQWGHIGWSVPAAFGNALAAPERQHVLMVGDGSFQLTAQEVAQMIRHDLPVIIFLINNHGYTIEVMIHDGPYNNVKNWDYAGLMEVFNAGEGNGLGLRARTGGELAAAIEQARANRNGPTLIECTLDRDDCTQELVTWGKRVAAANARPPRAG
notes: likely strain PAl 5 (ATCC 49037 / DSM 5601)
What is called kcat/Km is the turnover number divided by the Michaelis constant. As to B1, in data set [2], the Km is listed as 1.49 ± 0.43 mM, the catalytic constant (kcat) came to 8.25 ± 1.87 s⁻¹ and the kcat/Km came to 5532 ± 39.4 M⁻¹ s⁻¹.

B2: 3-HPDH A4YI81, SEQ ID NO: 154 (Metallosphaera sedula DSM 5348) (protein)
chain: MTEKVSVVGAGVIGVGWATLFASKGYSVSLYTEKKETLDKGIEKLRNYVQVMKNNSQITEDVNTVISRVSPTTNLDEAVRGANFVIEAVIEDYDAKKKIFGYLDSVLDKEVILASSTSGLLITEVQKAMSKHPERAVIAHPWNPPHLLPLVEIVPGEKTSMEVVERTKSLMEKLDRIVVVLKKEIPGFIGNRLAFALFREAVYLVDEGVATVEDIDKVMTAAIGLRWAFMGPFLTYHLGGGEGGLEYFFNRGFGYGANEWMHTLAKYDKFPYTGVTKAIQQMKEYSFIKGKTFQEISKWRDEKLLKVYKLVWEK
notes: UniProt strain ATCC 51363 / DSM 5348 / TH2
For B2, the Km in data set [3] is 0.65 mM.

B3: 3-HPDH 2CVZ, SEQ ID NO: 159 (Thermus thermophilus HB8) (protein)
chain: MEKVAFIGLGAMGYPMAGHLARRFPTLVWNRTFEKALRHQEEFGSEAVPLERVAEARVIFTCLPTTREVYEVAEALYPYLREGTYWVDATSGEPEASRRLAERLREKGVTYLDAPVSGGTSGAEAGTLTVMLGGPEEAVERVRPFLAYAKKVVHVGPVGAGHAVKAINNALLAVNLWAAGEGLLALVKQGVSAEKALEVINASSGRSNATENLIPQRVLTRAFPKTFALGLLVKDLGIAMGVLDGEKAPSPLLRLAREVYEMAKRELGPDADHVEALRLLERWGGVEIR
notes: PDB 2CVZ is from strain HB8 (ATCC 27634 / DSM 579)
With B3, the Km in data set [4] is listed as 0.42 mM.

B4: OAADC A0A0J7KM68_LASNI, SEQ ID NO: 145 (Lasius niger) (protein)
chain: MSYTVGQYLADRLVQIGLKDHFAIAGDYNLVLLDQFLKNKNWNQIYDCNELNCGFAAEGYARANGAAACVVTYTVGAISAMNSALAGAYAENLPVLCISGAPNCNDYGSGRILHHTIGKPEFTQQLDMVKHVTCAAESVVQASEAPAKIDHVIRTMLLEQRPAYIDIACNISGLECPRPGPIEDLLPQYAADNKSLTSAIDAIAKKIEASQKVTLYVGPKVRPGKAKEASVKLADALGCAVTVGPASMSFFPAKHPGFRGTYWGIVSTGDANKVVEEAETLIVLGPNWNDYATVGWKAWPKGPRVVTIDEKAAQVDGQVFSGLSMKALVEGLAKKVSKKPATAEGTKAPHFEYPVAKPDAKLTNAEMARQINAILDDNTTLHAETGDSWFNVKNMNWPNGLRIESEMQYGHIGWSIPSGFGGAIGSPERKHIIMCGDGSFQLTCQEVSQMIRYKLPVTIFLIDNHGYGIEIAIHDGPYNYIQNWNFTKLMEVFNGEGEECPYSHNKNGKSGLGLKATTPAELADAIKQAEANKEGPTLIQVVIDQDDCTKDLLTWGKEVAKTNARSPVVTDKAGGSG
With B4, in data set [5], the Km stood at 2.389 mM, the kcat came out at 6.25 s⁻¹ and the kcat/Km is 2620 ± 224 M⁻¹ s⁻¹.

B5: OAADC 5EUJ, SEQ ID NO: 146 (Zymobacter palmae) (protein)
chain: MYTVGMYLAERLAQIGLKHHFAVAGDYNLVLLDQLLLNKDMEQVYCCNELNCGFSAEGYARARGAAAAIVTFSVGAISAMNAIGGAYAENLPVILISGSPNTNDYGTGHILHHTIGTTDYNYQLEMVKHVTCAAESIVSAEEAPAKIDHVIRTALRERKPAYLEIACNVAGAECVRPGPINSLLRELEVDQTSVTAAVDAAVEWLQDRQNVVMLVGSKLRAAAAEKQAVALADRLGCAVTIMAAAKGFFPEDHPNFRGLYWGEVSSEGAQELVENADAILCLAPVFNDYATVGWNSWPKGDNVMVMDTDRVTFAGQSFEGLSLSTFAAALAEKAPSRPATTQGTQAPVLGIEAAEPNAPLTNDEMTRQIQSLITSDTTLTAETGDSWFNASRMPIPGGARVELEMQWGHIGWSVPSAFGNAVGSPERRHIMMVGDGSFQLTAQEVAQMIRYEIPVIIFLINNRGYVIEIAIHDGPYNYIKNWNYAGLIDVFNDEDGHGLGLKASTGAELEGAIKKALDNRRGPTLIECNIAQDDCTETLIAWGKRVAATNSRKPQAGGSG
Turning to B5, in data set [6], the Km was 6.667 mM, the kcat came to 28.8 s⁻¹ and the kcat/Km came out at 4320 ± 321 M⁻¹ s⁻¹.

B6: E. coli PCK (phosphoenolpyruvate carboxykinase, PCKA_Ecoli), SEQ ID NO: 162 (Escherichia coli K-12) (protein)
chain: MRVNNGLTPQELEAYGISDVHDIVYNPSYDLLYQEELDPSLTGYERGVLTNLGAVAVDTGIFTGRSPKDKYIVRDDTTRDTFWWADKGKGKNDNKPLSPETWQHLKGLVTRQLSGKRLFVVDAFCGANPDTRLSVRFITEVAWQAHFVKNMFIRPSDEELAGFKPDFIVMNGAKCTNPQWKEQGLNSENFVAFNLTERMQLIGGTWYGGEMKKGMFSMMNYLLPLKGIASMHCSANVGEKGDVAVFFGLSGTGKTTLSTDPKRRLIGDDEHGWDDDGVFNFEGGCYAKTIKLSKEAEPEIYNAIRRDALLENVTVREDGTIDFDDGSKTENTRVSYPIYHIDNIVKPVSKAGHATKVIFLTADAFGVLPPVSRLTADQTQYHFLSGFTAKLAGTERGITEPTPTFSACFGAAFLSLHPTQYAEVLVKRMQAAGAQAYLVNTGWNGTGKRISIKDTRAIIDAILNGSLDNAETFTLPMFNLAIPTELPGVDTKILDPRNTYASPEQWQEKAETLAKLFIDNFDKYTDTPAGAALVAAGPKL
In the case of B6, in data set [7], the Km is recorded as 0.1905 mM, the kcat is 3.42 s⁻¹ and the kcat/Km came to 18000 M⁻¹ s⁻¹.
